# B1: CPEB3 Ribozyme (parent)
# chain: GGGGGCCACAGCAGAAGCGUUCACGUCGCGGCCCCUGUCAGAUUCUGGUGAAUCUGCGAAUUCUGCUGU
# Variants of: B1
# Experiment: self-cleavage, relative activity (ratio to wild type); higher = more cleavage; co-transcriptional
row,Variant,self-cleavage
1,U44C C63U,0.819
2,U44C C66A,0.502
3,U44C C66G,0.464
4,U44C C66U,0.928
5,U44C G47A,0.979
6,U44C G47U,1.01
7,U44C G48A,1.02
8,U44C G48C,1
9,U44C G48U,1.02
10,U44C G50C,0.948
11,U44C G50U,0.93
12,U44C G56C,0.351
13,U44C G56U,0.388
14,U44C G58A,0.981
15,U44C G58C,0.917
16,U44C G58U,0.963
17,U44C G65C,0.452
18,U44C G68A,0.979
19,U44C G68C,0.949
20,U44C U46A,0.958
21,U44C U46C,0.972
22,U44C U49A,0.931
23,U44C U49C,0.83
24,U44C U49G,0.959

row,Variant,self-cleavage
1,U44C U53A,0.895
2,U44C U53C,0.647
3,U44C U53G,0.747
4,U44C U55A,0.524
5,U44C U55C,0.473
6,U44C U61C,0.317
7,U44C U62C,0.572
8,U44C U62G,0.664
9,U44C U64A,0.662
10,U44C U64G,0.719
11,U44C U67A,0.954
12,U44C U67G,0.931
13,U44C U69A,0.927
14,U44C U69C,1.07
15,U44C U69G,1.02
16,U44G,0.985
17,U44G A51C,0.966
18,U44G A51G,0.671
19,U44G A51U,0.941
20,U44G A52G,0.943
21,U44G A52U,0.975
22,U44G A59G,0.951
23,U44G A59U,0.612
24,U44G A60C,0.368

row,Variant,self-cleavage
1,U44G A60G,0.819
2,U44G A60U,0.382
3,U44G C45A,0.932
4,U44G C54G,0.417
5,U44G C54U,0.87
6,U44G C63A,0.835
7,U44G C63U,0.918
8,U44G C66G,0.707
9,U44G C66U,0.986
10,U44G G47A,0.954
11,U44G G47C,0.962
12,U44G G47U,1.01
13,U44G G48C,0.965
14,U44G G50C,0.949
15,U44G G50U,0.98
16,U44G G56U,0.666
17,U44G G58A,0.922
18,U44G G58C,0.944
19,U44G G58U,0.959
20,U44G G65A,0.812
21,U44G G65C,0.445
22,U44G G65U,0.674
23,U44G G68A,0.942
24,U44G G68C,1.01

row,Variant,self-cleavage
1,U44G G68U,1.03
2,U44G U46A,0.978
3,U44G U46C,0.928
4,U44G U46G,0.909
5,U44G U49G,0.927
6,U44G U53A,0.755
7,U44G U53C,0.749
8,U44G U55C,0.512
9,U44G U61C,0.649
10,U44G U61G,0.82
11,U44G U62C,0.842
12,U44G U64C,0.754
13,U44G U64G,0.84
14,U44G U67A,0.883
15,U44G U67C,0.977
16,U44G U67G,1.01
17,U44G U69A,1.01
18,U44G U69C,1.04
19,U44G U69G,1.04
20,C45A,0.984
21,C45A A51C,0.924
22,C45A A51G,1.02
23,C45A A52U,0.919
24,C45A A59C,0.613

row,Variant,self-cleavage
1,C45A A59U,0.793
2,C45A C54G,0.562
3,C45A C54U,0.926
4,C45A C57G,0.252
5,C45A C63A,0.817
6,C45A C66G,0.788
7,C45A G48C,1.01
8,C45A G48U,0.976
9,C45A G50A,1.02
10,C45A G56C,0.482
11,C45A G56U,0.695
12,C45A G58A,1
13,C45A G58C,1.02
14,C45A G65C,0.533
15,C45A G65U,0.729
16,C45A G68A,1.02
17,C45A G68C,0.965
18,C45A G68U,0.998
19,C45A U46A,1.01
20,C45A U46C,1
21,C45A U46G,0.917
22,C45A U49C,1
23,C45A U53A,0.87
24,C45A U55A,0.534

row,Variant,self-cleavage
1,C45A U55G,0.475
2,C45A U61A,0.86
3,C45A U61G,0.6
4,C45A U62A,0.846
5,C45A U62C,0.85
6,C45A U62G,0.832
7,C45A U64A,0.821
8,C45A U64C,0.842
9,C45A U64G,0.809
10,C45A U67A,0.951
11,C45A U67C,0.98
12,C45A U67G,1.01
13,C45A U69A,1
14,C45A U69C,1.07
15,C45A U69G,1.06
16,C45G,0.986
17,C45G A51C,1.01
18,C45G A51G,1.02
19,C45G A51U,1.03
20,C45G A52C,0.981
21,C45G A59C,0.638
22,C45G A59G,0.969
23,C45G A59U,0.815
24,C45G A60C,0.493

row,Variant,self-cleavage
1,C45G A60G,0.897
2,C45G A60U,0.407
3,C45G C54G,0.688
4,C45G C54U,0.952
5,C45G C57A,0.318
6,C45G C57G,0.328
7,C45G C57U,0.366
8,C45G C63U,0.964
9,C45G C66G,0.877
10,C45G G47A,1.03
11,C45G G48A,1.01
12,C45G G48C,1.01
13,C45G G48U,1.02
14,C45G G50A,1.01
15,C45G G50C,1.01
16,C45G G56A,0.881
17,C45G G58A,0.919
18,C45G G58C,0.946
19,C45G G58U,1.01
20,C45G G65A,0.87
21,C45G G65U,0.832
22,C45G G68A,0.942
23,C45G G68C,1
24,C45G U46A,0.631

row,Variant,self-cleavage
1,C45G U46C,0.999
2,C45G U46G,0.966
3,C45G U49C,0.915
4,C45G U49G,0.947
5,C45G U53C,0.806
6,C45G U53G,0.858
7,C45G U55A,0.797
8,C45G U55C,0.487
9,C45G U55G,0.648
10,C45G U61A,0.922
11,C45G U61C,0.757
12,C45G U61G,0.731
13,C45G U62C,0.798
14,C45G U62G,0.81
15,C45G U64C,0.836
16,C45G U64G,0.739
17,C45G U67A,0.962
18,C45G U67C,0.917
19,C45G U69A,1.01
20,C45G U69C,1.05
21,C45U,0.996
22,C45U A51C,0.999
23,C45U A51U,0.947
24,C45U A52C,0.988

row,Variant,self-cleavage
1,C45U A52G,1.01
2,C45U A52U,0.972
3,C45U A59G,0.98
4,C45U A59U,0.837
5,C45U A60C,0.33
6,C45U A60G,0.9
7,C45U A60U,0.469
8,C45U C54A,0.681
9,C45U C57A,0.32
10,C45U C57G,0.319
11,C45U C63A,0.838
12,C45U C66A,0.843
13,C45U C66G,0.87
14,C45U G47A,1.03
15,C45U G47U,1.02
16,C45U G48A,0.992
17,C45U G48C,0.975
18,C45U G48U,1.01
19,C45U G50A,1.01
20,C45U G50C,1.02
21,C45U G56C,0.694
22,C45U G56U,0.897
23,C45U G65C,0.719
24,C45U G65U,0.813

row,Variant,self-cleavage
1,C45U G68C,1
2,C45U G68U,1.01
3,C45U U49A,0.993
4,C45U U53C,0.834
5,C45U U55A,0.825
6,C45U U55C,0.755
7,C45U U55G,0.668
8,C45U U61A,0.919
9,C45U U61C,0.887
10,C45U U62A,0.908
11,C45U U64G,0.854
12,C45U U67C,0.955
13,C45U U69A,1.05
14,C45U U69C,1.08
15,U46A A51C,0.99
16,U46A A51U,1.01
17,U46A A52C,1.01
18,U46A A59C,0.802
19,U46A A59G,1.02
20,U46A A60C,0.346
21,U46A A60G,0.91
22,U46A C54A,0.933
23,U46A C54G,0.971
24,U46A C57G,0.31

row,Variant,self-cleavage
1,U46A C57U,0.309
2,U46A C63U,1.02
3,U46A C66A,0.924
4,U46A C66G,0.961
5,U46A C66U,0.972
6,U46A G47A,1.01
7,U46A G47U,0.991
8,U46A G48A,1.01
9,U46A G48C,1.01
10,U46A G48U,0.991
11,U46A G50A,0.974
12,U46A G50C,0.951
13,U46A G56A,0.997
14,U46A G58A,0.93
15,U46A G58C,0.961
16,U46A G58U,0.988
17,U46A G65U,0.926
18,U46A G68A,1.02
19,U46A G68C,0.97
20,U46A U49A,1.02
21,U46A U55A,0.964
22,U46A U55C,0.871
23,U46A U61C,0.86
24,U46A U61G,0.902

row,Variant,self-cleavage
1,U46A U62C,0.895
2,U46A U62G,0.925
3,U46A U64A,0.955
4,U46A U64G,0.964
5,U46A U67C,1.01
6,U46A U67G,1.03
7,U46A U69A,0.991
8,U46A U69C,1.07
9,U46C A51G,0.988
10,U46C A51U,0.994
11,U46C A52C,0.943
12,U46C A52G,1
13,U46C A59G,1.03
14,U46C A59U,0.847
15,U46C A60C,0.339
16,U46C A60U,0.472
17,U46C C54A,0.772
18,U46C C54G,0.891
19,U46C C57A,0.373
20,U46C C63A,0.771
21,U46C C63G,0.796
22,U46C C63U,0.983
23,U46C C66A,0.763
24,U46C C66G,0.762

row,Variant,self-cleavage
1,U46C G47A,0.682
2,U46C G47C,1.02
3,U46C G48A,1.03
4,U46C G48C,1.02
5,U46C G48U,1.02
6,U46C G50A,0.974
7,U46C G50C,1.04
8,U46C G56U,0.837
9,U46C G58A,0.979
10,U46C G65A,0.893
11,U46C G65C,0.615
12,U46C G68A,1
13,U46C G68C,0.985
14,U46C U49A,0.996
15,U46C U49C,0.913
16,U46C U53G,0.872
17,U46C U55A,0.773
18,U46C U55C,0.701
19,U46C U55G,0.768
20,U46C U61A,0.95
21,U46C U62A,0.943
22,U46C U62C,0.895
23,U46C U62G,0.916
24,U46C U64A,0.877

row,Variant,self-cleavage
1,U46C U64C,0.936
2,U46C U64G,0.852
3,U46C U67A,0.938
4,U46C U67C,0.962
5,U46C U67G,0.977
6,U46C U69A,0.997
7,U46C U69C,1.06
8,U46C U69G,1.05
9,U46G A51C,0.949
10,U46G A51G,0.618
11,U46G A51U,1
12,U46G A52U,0.981
13,U46G A59G,0.965
14,U46G A59U,0.842
15,U46G A60C,0.413
16,U46G A60G,0.952
17,U46G A60U,0.413
18,U46G C54G,0.907
19,U46G C57A,0.354
20,U46G C57G,0.303
21,U46G C57U,0.391
22,U46G C63A,0.869
